From PMC6774519 come the findings set out here.

Data set [1] has as its system #B1-3 anti-m6A monoclonal antibody (guinea pig (Hartley)). As to the kind of experiment: UV crosslinking, IP and RT truncation (footprinting). The conditions noted are these: 41 clones sequenced; m6A at position 14; SPR: Biacor T100, HBS-EP+ buffer, 30 ul/min, biotin-RNA at 20 RU on SA chip, antibody 0-27 nM, 1:1 fit; ELISA: PBS, 3 h, room temperature; UV-crosslink IP: …. (In an ELISA, binding on a coated surface is turned into a signal by an enzyme label.)

Data set [2] has the same test system. The data set can be described thus: SPR. The conditions noted are these: m6A at position 6; SPR: Biacor T100, HBS-EP+ buffer, 30 ul/min, biotin-RNA at 20 RU on SA chip, antibody 0-27 nM, 1:1 fit; ELISA: PBS, 3 h, room temperature; UV-crosslink IP: ….
The subject of data set [3] is #B1-1 anti-m6A monoclonal antibody (guinea pig (Hartley)). As to the kind of experiment: SPR. The conditions noted are these: m6A at position 6; SPR: Biacor T100, HBS-EP+ buffer, 30 ul/min, biotin-RNA at 20 RU on SA chip, antibody 0-27 nM, 1:1 fit; ELISA: PBS, 3 h, room temperature; UV-crosslink IP: ….
Data set [4] deals with #B1-3 anti-m6A monoclonal antibody (guinea pig (Hartley)). The data set can be described thus: pull-down (protein A IP). The conditions noted are these: m6A at position 6; SPR: Biacor T100, HBS-EP+ buffer, 30 ul/min, biotin-RNA at 20 RU on SA chip, antibody 0-27 nM, 1:1 fit; ELISA: PBS, 3 h, room temperature; UV-crosslink IP: ….

In data set [1], “AUCAUCUUUCGGGACUGACCUGAAAUGAACCCUA [Snord-oligo (Snord2, 34 nt)]” yielded a binding signal (% RT truncations at m6A) of 68.

For NNNGGACNNN [m6A-oligo], the Kd (usually the free concentration of one partner at which half of the binding sites on the other are occupied at equilibrium, for simple one-to-one binding) came out at 6.5 nM in data set [2] and 2.5 nM in data set [3]. In data set [4], the binding signal (% immunoprecipitated) was 35.
